Reference: patent EP2105446A2 (ZymoGenetics, Inc., dated 2009)
Each block holds one binder with its values, some of them ahead of it.

Columns and labels:
[1] = target: factor present in the activated monkey spleen conditioned media (monkey); test: cell-based or functional assay
[2] = target: factor present in the activated CD3+ selected human T-cell conditioned media (human); test: cell-based or functional assay

- inhibition of BaF3/Zalpha11 cell growth (Alamar Blue), concentration giving complete inhibition [1]: 10 µg/mL
- titration of soluble receptor, lowest concentration giving complete inhibition of BaF3/Zalpha11 growth [1]: 20 ng/mL
- inhibition of BaF3/Zalpha11 cell growth (Alamar Blue), concentration giving complete inhibition [2]: 10 µg/mL
- titration of soluble receptor, lowest concentration giving complete inhibition of BaF3/Zalpha11 growth [2]: 20 ng/mL
B1: zalpha11CEE soluble receptor (zalpha11 extracellular domain with C-terminal Glu-Glu tag) (receptor)
chain: not shown

- inhibition of BaF3/Zalpha11 cell growth (Alamar Blue), concentration giving complete inhibition [1]: 10 µg/mL
- titration of soluble receptor, lowest concentration giving complete inhibition of BaF3/Zalpha11 growth [1]: 20 ng/mL
- inhibition of BaF3/Zalpha11 cell growth (Alamar Blue), concentration giving complete inhibition [2]: 10 µg/mL
- titration of soluble receptor, lowest concentration giving complete inhibition of BaF3/Zalpha11 growth [2]: 20 ng/mL
B2: zalpha11CFLG soluble receptor (zalpha11 extracellular domain with C-terminal FLAG tag) (receptor)
chain: not shown
